What was measured:
Test in all cases: ELISA
human NPR1 W74R = target: T1, human NPR1 W74R (human)
T1 chain: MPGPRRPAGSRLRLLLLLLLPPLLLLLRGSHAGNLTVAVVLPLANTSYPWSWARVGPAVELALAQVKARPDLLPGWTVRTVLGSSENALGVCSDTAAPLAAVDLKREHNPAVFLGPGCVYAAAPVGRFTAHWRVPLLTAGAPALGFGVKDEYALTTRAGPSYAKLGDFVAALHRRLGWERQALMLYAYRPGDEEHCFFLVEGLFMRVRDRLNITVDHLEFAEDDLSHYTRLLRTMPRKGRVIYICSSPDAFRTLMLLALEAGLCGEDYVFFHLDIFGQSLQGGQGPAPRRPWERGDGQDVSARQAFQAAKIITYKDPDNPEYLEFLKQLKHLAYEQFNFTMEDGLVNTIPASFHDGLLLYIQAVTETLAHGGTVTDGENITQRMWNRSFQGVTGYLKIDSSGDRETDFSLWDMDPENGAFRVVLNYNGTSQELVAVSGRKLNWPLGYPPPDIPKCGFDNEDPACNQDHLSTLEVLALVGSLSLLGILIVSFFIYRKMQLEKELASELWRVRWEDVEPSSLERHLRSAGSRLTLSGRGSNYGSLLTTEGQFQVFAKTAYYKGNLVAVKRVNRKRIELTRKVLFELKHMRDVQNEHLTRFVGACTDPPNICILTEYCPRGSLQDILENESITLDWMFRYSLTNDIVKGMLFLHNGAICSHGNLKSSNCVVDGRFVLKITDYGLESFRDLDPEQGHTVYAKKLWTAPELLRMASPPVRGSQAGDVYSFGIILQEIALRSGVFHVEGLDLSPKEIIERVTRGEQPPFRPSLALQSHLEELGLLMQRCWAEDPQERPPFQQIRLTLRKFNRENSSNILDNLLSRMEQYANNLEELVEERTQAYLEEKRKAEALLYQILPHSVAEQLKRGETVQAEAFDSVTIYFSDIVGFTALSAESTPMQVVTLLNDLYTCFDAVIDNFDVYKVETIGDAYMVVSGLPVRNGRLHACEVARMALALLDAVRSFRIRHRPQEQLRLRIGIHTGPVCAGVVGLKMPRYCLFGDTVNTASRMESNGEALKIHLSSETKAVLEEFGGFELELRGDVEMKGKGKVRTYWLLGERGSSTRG

human NPR1 W74R + ANP = target: T2, human NPR1 W74R + ANP (human)
T2 chain 1: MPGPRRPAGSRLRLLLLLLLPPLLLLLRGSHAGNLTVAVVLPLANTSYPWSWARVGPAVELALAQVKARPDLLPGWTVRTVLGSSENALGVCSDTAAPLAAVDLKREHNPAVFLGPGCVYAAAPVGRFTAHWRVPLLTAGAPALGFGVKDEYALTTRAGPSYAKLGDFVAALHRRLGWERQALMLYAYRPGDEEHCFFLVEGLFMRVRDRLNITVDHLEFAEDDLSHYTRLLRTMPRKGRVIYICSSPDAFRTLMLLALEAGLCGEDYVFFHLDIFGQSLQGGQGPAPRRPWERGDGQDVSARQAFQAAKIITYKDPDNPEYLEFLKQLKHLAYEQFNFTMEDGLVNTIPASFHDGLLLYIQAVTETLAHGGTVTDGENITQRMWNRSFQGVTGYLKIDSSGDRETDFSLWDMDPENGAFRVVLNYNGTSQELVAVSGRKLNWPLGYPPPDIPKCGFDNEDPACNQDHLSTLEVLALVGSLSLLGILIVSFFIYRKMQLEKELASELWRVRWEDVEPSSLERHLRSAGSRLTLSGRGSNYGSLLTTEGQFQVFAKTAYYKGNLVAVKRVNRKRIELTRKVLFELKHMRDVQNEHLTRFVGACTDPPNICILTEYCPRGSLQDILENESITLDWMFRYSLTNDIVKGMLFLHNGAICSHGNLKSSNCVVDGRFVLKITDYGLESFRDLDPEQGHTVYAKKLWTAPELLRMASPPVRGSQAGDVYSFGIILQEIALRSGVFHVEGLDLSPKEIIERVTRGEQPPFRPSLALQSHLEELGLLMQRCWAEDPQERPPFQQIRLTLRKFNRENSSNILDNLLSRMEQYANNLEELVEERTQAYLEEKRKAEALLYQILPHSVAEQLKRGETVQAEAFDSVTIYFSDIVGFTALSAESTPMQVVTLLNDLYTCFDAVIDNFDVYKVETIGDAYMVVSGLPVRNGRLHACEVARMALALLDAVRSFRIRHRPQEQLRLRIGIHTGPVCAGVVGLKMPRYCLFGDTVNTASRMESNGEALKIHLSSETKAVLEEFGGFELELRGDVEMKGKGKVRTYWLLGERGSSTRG
T2 chain 2: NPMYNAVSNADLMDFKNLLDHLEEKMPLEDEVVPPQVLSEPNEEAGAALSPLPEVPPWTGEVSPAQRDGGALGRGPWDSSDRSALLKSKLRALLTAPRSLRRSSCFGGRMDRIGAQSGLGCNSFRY

rat NPR1 = target: T3, rat NPR1 (rat)
T3 chain: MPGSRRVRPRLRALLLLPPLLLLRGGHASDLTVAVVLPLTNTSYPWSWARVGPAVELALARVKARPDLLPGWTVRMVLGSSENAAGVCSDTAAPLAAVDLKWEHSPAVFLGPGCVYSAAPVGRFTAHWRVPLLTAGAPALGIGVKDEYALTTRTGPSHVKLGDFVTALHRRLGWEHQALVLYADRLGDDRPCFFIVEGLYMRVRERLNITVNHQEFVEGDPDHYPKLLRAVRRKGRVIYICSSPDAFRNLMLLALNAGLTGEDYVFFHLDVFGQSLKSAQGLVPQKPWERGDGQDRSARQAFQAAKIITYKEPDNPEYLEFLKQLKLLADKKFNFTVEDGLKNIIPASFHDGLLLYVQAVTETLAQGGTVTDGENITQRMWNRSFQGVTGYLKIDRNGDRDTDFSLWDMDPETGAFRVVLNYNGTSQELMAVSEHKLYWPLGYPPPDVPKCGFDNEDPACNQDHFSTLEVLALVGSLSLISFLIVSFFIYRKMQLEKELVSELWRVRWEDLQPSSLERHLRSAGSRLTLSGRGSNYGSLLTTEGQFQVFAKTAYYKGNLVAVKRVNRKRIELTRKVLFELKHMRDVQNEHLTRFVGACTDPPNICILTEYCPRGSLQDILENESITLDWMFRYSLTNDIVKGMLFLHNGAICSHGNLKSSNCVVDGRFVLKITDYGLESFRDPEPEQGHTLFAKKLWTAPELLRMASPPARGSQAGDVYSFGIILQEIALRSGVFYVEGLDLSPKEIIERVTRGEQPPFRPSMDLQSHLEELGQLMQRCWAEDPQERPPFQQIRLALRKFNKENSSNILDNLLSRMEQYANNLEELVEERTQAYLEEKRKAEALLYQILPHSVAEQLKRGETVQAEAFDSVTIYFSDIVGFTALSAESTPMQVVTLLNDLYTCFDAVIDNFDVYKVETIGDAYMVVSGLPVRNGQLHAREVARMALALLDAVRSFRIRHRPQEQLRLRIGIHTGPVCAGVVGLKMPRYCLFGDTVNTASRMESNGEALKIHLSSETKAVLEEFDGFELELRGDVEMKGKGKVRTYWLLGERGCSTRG

rat NPR1-ANP complex = target: T4, rat NPR1-ANP complex (rat)
T4 chain 1: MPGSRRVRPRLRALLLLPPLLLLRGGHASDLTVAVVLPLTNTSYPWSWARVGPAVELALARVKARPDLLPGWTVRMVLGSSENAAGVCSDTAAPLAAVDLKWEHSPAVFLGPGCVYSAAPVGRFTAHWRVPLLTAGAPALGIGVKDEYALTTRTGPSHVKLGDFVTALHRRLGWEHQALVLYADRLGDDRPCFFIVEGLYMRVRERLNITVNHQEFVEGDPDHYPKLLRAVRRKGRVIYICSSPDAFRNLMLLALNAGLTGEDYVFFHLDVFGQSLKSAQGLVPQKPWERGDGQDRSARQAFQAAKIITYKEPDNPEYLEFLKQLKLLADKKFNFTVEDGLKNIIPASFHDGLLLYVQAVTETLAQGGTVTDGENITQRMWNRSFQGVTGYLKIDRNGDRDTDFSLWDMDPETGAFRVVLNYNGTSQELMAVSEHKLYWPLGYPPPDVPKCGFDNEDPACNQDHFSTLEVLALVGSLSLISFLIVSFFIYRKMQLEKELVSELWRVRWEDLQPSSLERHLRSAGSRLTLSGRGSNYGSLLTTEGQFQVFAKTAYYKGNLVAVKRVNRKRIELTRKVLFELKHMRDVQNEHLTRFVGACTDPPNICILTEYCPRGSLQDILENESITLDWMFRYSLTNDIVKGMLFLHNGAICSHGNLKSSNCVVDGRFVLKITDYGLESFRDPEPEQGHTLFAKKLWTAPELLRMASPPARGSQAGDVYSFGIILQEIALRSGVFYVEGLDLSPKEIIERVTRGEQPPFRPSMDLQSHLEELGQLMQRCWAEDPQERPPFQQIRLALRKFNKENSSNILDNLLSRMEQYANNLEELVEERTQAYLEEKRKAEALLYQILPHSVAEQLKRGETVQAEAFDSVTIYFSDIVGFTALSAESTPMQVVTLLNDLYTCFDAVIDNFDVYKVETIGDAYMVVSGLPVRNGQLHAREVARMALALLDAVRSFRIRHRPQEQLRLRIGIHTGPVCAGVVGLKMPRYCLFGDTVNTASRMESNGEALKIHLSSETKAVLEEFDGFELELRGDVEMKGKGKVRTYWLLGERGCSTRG
T4 chain 2: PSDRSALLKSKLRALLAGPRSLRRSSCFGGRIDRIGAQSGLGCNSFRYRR

B1: WW06 IgG (antibody, V domains shown)
VH: QVQLVQSGAEVKKPGESLKISCKGSGYSFTSYWIAWVRQMPGKGLEWMGRIDPDNSYTRYSPSFQGQVTISADKSISTAYLQWSSLKASDTAMYYCARWLSPGYALGEQPAGMDHWGQGTLVTVSS
VL: DIVLTQPPSVSGAPGQRVTISCTGSSSNIGAGYAVHWYQQLPGTAPKLLIYSNNKRPSGVPDRFSGSKSGTSASLAITGLQAEDEADYYCQSYDLQKSSRVFGGGTKLTVL
Human NPR1 W74R
  EC50: 0.9 nM
Human NPR1 W74R + ANP
  EC50: 0.8 nM
Rat NPR1
  binding result: no binding
Rat NPR1-ANP complex
  binding result: no binding

From US20230365674 (published 2023)
